Reference: patent US20260235601, “APTAMER BASED DETECTION OF SARS-COV-2 INFECTION” (COUNCIL OF SCIENTIFIC & INDUSTRIAL RESEARCH, published 2026)
Positions count from the first letter of the chain named.

B1: AptRBD3 (ssDNA)
DNA: ATGCGGATCCCGCGCATTTAAAGCGGTTCGATGCGTATGGGTTTGTCCGATTCGGTGCGCGAAGCTTGCGC
B2: AptRBD6 (ssDNA)
DNA: B1 DNA with G26C, C53A, G55C
B3: AptRBD8 (ssDNA)
DNA: ATGCGGATCCCGCGCATTTAAAGGGGGCGCTCCGTATGGGTTTGTCCGATTAGCTGCGCGAAGCTTGCGC
B4: AptRBD2 (ssDNA)
DNA: ATGCGGATCCCGCGCATATTAAAGGGGAGGCTCCCTATGGGTTTGTCCGATTAGCTGCGCGAAGCTTGCGC
B5: AptRBD4 (ssDNA)
DNA: ATGCGGATCCCGCGCATTTAAAGCGTCGATGCGTATGGGTTTGTCCGATTAGCTGCGCGAAGCTTGCGC
B6: AptRBD5 (ssDNA)
DNA: ATGCGGATCCCGCGCATTTAAAGGGAGACCTATGGGTTTGTCCGATTAGCTGCGCGAAGCTTGCGC
B7: AptRBD9 (ssDNA)
DNA: ATGCGGATCCCGCGCCCGACGTCGCATGCTCCCGGCCGCCATGGCGGCCGCGGGAATTCGATTAGCGCGAAGCTTGCGC

Target: SARS-CoV-2 spike receptor-binding domain (RBD) (SARS-CoV-2 (Wuhan strain), UniProt P0DTC2 P0DTC2:319-541)
Assay: ELONA
Details: tags: N-terminal His tag, pET-15b, E. coli BL21 Star (DE3), about 26 kDa

Row | Binder | activity [ng/mL] | binding result | other results
1 | B1 | – | – | binding signal: 0.75 absorbance
2 | B2 | – | – | binding signal: 0.7 absorbance
3 | ATTTAAAGCGGTTCGATGCGTATGGTTTGTCCGATTCGGT (ssDNA) [AptRBD3.1] | 4 | – | –
4 | ATTTAAAGCGGTTCGATGCGTATGGTTTGTCCGAT (ssDNA) [AptRBD3.2] | 4 | – | –
5 | AGCGGTTCGATGCGTATGGTTTGTCCGAT (ssDNA) [AptRBD3.3] | 4 | – | –
6 | ATTTAAAGCGCTTCGATGCGTATGGGTTTGTCCGAT (ssDNA) [AptRBD6.1] | 4 | – | –
7 | ATTTAAAGGGGGCGCTCCGTATGGGTTTGTCCGATTAGCT (ssDNA) [AptRBD8.1] | 8 | – | –
8 | B3 | – | – | binding signal: 0.75 absorbance
9 | B4 | – | binds | –
10 | B5 | – | binds | –
11 | B6 | – | binds | –
12 | B7 | – | binds | –
